{"source": "paper PMC9445081", "about": "“Structural basis for recognition of N-formyl peptides as pathogen-associated molecular patterns” (Nature Communications, 2022)", "molecules": {"B1": {"name": "fMet-Leu-Phe (fMLF) (peptide)", "peptide": "For-Met-Leu-Phe"}, "B2": {"name": "formyl peptide receptor 1 (FPR1), N-terminal FLAG tag and C-terminal 6 x His tag (receptor, human)", "chain": "METNSSLPTNISGGTPAVSAGYLFLDIITYLVFAVTFVLGVLGNGLVIWVAGFRMTHTVTTISYLNLAVADFCFTSTLPFFMVRKAMGGHWPFGWFLCKFVFTIVDINLFGSVFLIALIALDRCVCVLHPVWTQNHRTVSLAKKVIIGPWVMALLLTLPVIIRVTTVPGKTGTVACTFNFSPWTNDPKERINVAVAMLTVRGIIRFIIGFSAPMSIVAVSYGLIATKIHKQGLIKSSRPLRVLSFVAAAFFLCWSPYQVVALIATVRIRELLQGMYKEIGIAVDVTSALAFFNSCLNPMLYVFMGQDFRERLIHALPASLERALTEDSTQTSDTATNSTLPSAEVELQAK", "notes": "formyl peptide receptor 1, Homo sapiens, cDNA Gene ID 2357; Solubilised in DDM/CHS and exchanged to LMNG (later LMNG/GDN/CHS); also called human FPR1; source: Sf9 insect cells (baculovirus), purified (anti-FLAG M1 resin, SEC) in detergent; not shown: FLAG, N-terminal, kept"}}, "key": {"[1]": {"system": "FPR1", "details": "non-formyl MLF versus fMLF; cited from earlier work"}, "[2]": {"system": "FPR1", "details": "cited from earlier work"}, "[3]": {"target": "T1, FPR1 F102A (human, UniProt P21462 1-350, F102A)", "T1 sequence (looked up)": "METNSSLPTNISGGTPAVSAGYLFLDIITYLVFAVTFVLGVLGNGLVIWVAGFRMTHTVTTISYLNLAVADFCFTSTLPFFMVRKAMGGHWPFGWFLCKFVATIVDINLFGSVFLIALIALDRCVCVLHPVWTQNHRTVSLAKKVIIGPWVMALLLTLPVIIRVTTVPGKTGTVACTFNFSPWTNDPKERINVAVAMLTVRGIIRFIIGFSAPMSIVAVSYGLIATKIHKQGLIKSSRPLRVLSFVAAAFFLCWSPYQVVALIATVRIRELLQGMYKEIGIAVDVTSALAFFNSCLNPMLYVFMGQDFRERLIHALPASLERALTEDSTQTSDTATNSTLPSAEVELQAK", "assay": "cell-based or functional assay"}, "[4]": {"target": "T2, FPR1 L109A (human, UniProt P21462 1-350, L109A)", "T2 sequence (looked up)": "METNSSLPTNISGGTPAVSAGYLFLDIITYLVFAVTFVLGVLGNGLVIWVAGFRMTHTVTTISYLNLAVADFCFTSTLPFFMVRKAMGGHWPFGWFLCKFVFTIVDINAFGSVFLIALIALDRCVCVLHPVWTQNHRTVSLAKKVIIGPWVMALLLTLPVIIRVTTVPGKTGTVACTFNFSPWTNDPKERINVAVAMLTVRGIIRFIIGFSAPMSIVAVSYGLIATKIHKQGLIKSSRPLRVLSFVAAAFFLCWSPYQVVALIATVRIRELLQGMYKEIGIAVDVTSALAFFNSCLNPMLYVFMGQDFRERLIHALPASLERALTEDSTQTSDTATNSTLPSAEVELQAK", "assay": "cell-based or functional assay"}, "[5]": {"target": "T3, FPR1 F110A (human, UniProt P21462 1-350, F110A)", "T3 sequence (looked up)": "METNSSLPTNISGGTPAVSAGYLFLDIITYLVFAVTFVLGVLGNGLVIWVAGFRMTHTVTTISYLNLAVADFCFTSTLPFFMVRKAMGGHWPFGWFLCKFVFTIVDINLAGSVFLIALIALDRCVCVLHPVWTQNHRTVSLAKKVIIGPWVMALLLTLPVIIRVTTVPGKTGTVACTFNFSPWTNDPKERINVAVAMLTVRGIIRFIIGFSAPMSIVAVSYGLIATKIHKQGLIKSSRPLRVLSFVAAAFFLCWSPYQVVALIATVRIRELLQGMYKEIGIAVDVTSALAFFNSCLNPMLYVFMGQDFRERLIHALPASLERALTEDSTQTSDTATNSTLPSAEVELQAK", "assay": "cell-based or functional assay"}, "[6]": {"target": "T4, FPR1 T265A (human, UniProt P21462 1-350, T265A)", "T4 sequence (looked up)": "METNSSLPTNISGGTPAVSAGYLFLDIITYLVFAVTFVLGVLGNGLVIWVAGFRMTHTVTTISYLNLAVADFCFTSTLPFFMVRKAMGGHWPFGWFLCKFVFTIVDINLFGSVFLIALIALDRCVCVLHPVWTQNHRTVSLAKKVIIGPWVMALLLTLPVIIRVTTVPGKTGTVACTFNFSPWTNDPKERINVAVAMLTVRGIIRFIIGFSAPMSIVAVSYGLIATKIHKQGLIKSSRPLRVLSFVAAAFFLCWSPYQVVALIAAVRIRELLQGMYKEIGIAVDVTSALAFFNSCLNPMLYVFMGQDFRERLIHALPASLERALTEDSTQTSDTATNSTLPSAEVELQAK", "assay": "cell-based or functional assay"}, "[7]": {"target": "T5, FPR1 V283A (human, UniProt P21462 1-350, V283A)", "T5 sequence (looked up)": "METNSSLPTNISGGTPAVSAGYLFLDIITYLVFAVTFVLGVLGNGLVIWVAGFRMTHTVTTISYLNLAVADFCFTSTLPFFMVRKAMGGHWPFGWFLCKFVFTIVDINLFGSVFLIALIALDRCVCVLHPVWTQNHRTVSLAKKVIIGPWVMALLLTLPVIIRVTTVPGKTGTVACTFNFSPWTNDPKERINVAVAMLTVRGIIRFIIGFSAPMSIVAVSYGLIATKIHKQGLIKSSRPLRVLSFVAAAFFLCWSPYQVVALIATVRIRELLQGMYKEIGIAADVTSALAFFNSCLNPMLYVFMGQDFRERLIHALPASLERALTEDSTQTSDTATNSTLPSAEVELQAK", "assay": "cell-based or functional assay"}, "[8]": {"target": "T6, FPR1 F291A (human, UniProt P21462 1-350, F291A)", "T6 sequence (looked up)": "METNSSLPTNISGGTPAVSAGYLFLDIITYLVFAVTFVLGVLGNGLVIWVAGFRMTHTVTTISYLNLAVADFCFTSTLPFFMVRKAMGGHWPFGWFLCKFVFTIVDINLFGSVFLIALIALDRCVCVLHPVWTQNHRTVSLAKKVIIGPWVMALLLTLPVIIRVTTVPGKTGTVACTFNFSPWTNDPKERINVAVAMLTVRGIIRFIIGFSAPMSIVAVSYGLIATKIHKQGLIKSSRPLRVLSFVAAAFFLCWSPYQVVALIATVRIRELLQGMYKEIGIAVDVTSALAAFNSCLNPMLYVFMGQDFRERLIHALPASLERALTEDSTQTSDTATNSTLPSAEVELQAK", "assay": "cell-based or functional assay"}, "[9]": {"target": "T7, WT FPR1 expressed in HeLa cells (human, UniProt P21462 1-350)", "T7 sequence (looked up)": "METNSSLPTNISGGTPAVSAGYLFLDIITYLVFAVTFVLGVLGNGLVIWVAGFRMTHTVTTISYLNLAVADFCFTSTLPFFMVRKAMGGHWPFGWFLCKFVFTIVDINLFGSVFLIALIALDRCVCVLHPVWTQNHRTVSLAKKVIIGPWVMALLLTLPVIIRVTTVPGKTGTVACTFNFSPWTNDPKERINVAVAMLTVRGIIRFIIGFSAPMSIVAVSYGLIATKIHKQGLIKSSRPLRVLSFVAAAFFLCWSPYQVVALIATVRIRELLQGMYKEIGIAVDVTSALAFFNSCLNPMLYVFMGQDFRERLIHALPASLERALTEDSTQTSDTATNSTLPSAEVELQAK", "assay": "cell-based or functional assay"}, "[10]": {"target": "T8, FPR1 F81A (human, UniProt P21462 1-350, F81A)", "T8 sequence (looked up)": "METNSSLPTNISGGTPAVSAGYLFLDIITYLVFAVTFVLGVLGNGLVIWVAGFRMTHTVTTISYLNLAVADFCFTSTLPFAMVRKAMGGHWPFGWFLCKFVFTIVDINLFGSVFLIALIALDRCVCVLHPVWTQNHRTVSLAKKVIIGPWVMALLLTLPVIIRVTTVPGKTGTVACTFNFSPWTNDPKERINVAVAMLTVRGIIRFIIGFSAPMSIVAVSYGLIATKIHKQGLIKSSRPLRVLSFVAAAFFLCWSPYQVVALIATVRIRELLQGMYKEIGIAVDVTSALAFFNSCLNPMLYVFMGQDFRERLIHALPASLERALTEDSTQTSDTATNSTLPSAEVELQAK", "assay": "cell-based or functional assay"}, "[11]": {"target": "T9, Gαi (α subunit of the Gi1 heterotrimer) (human, UniProt P63096 1-354)", "T9 construct": "Gαi of the Gi1 heterotrimer, human cDNA; The same chain as the first chain of m4; source: Trichoplusia ni Hi5 insect cells (baculovirus), purified as part of the Gi1 heterotrimer (Ni-NTA)", "T9 sequence (P63096 whole entry, one chain of several)": "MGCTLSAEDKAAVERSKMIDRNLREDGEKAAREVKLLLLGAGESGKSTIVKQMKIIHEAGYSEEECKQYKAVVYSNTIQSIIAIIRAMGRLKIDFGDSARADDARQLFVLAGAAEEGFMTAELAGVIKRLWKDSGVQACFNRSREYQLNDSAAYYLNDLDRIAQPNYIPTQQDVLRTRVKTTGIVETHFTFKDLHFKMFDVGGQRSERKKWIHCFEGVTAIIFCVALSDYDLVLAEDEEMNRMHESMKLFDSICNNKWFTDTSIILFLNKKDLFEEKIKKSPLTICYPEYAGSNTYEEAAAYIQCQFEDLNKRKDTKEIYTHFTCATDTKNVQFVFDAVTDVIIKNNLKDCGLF", "assay": "cryo-EM structure", "details": "both partners purified"}}, "note": "Where no end group is shown, it is not given here. The star is where a group is joined. For = O=C*", "data": [{"molecule": "Met-Leu-Phe [MLF]", "values": [{"measurement": "orders of magnitude less potent in FPR1 binding", "setting": "[1]", "value": "3 orders of magnitude"}]}, {"molecule": "tBoc-MLF", "values": [{"measurement": "pharmacological property at FPR1", "setting": "[2]", "value": "antagonist"}]}, {"molecule": "B1", "values": [{"measurement": "pEC50 of inhibition of forskolin-elevated cAMP, transfected HeLa cells", "setting": "[3]", "value": 8.5}, {"measurement": "pEC50 of inhibition of forskolin-elevated cAMP, transfected HeLa cells", "setting": "[4]", "value": 8.1}, {"measurement": "pEC50 of inhibition of forskolin-elevated cAMP, transfected HeLa cells", "setting": "[5]", "value": 8.6}, {"measurement": "pEC50 of inhibition of forskolin-elevated cAMP, transfected HeLa cells", "setting": "[6]", "value": 7.8}, {"measurement": "pEC50 of inhibition of forskolin-elevated cAMP, transfected HeLa cells", "setting": "[7]", "value": 8.8}, {"measurement": "pEC50 of inhibition of forskolin-elevated cAMP, transfected HeLa cells", "setting": "[8]", "value": 8.4}, {"measurement": "pEC50 of inhibition of forskolin-elevated cAMP, transfected HeLa cells", "setting": "[9]", "value": 9.1}, {"measurement": "pEC50 of inhibition of forskolin-elevated cAMP, transfected HeLa cells", "setting": "[10]", "value": 8.1}]}, {"molecule": "B2", "values": [{"measurement": "binding result", "setting": "[11]", "value": "binds"}]}]}
